Measured values: patent US20100305031A1 (Daiichi Sankyo, published 2010)
Bridges are numbered along the chain shown (N, C = ends). Where no end group is shown, it is not given here.

target: human type recombinant neutral endopeptidase (hNEP, manufactured by R&D Systems, Inc., U.S.A.) (human, UniProt P08473 52-750); test: cell-based or functional assay
Sequence (P08473 52-750 limits assumed): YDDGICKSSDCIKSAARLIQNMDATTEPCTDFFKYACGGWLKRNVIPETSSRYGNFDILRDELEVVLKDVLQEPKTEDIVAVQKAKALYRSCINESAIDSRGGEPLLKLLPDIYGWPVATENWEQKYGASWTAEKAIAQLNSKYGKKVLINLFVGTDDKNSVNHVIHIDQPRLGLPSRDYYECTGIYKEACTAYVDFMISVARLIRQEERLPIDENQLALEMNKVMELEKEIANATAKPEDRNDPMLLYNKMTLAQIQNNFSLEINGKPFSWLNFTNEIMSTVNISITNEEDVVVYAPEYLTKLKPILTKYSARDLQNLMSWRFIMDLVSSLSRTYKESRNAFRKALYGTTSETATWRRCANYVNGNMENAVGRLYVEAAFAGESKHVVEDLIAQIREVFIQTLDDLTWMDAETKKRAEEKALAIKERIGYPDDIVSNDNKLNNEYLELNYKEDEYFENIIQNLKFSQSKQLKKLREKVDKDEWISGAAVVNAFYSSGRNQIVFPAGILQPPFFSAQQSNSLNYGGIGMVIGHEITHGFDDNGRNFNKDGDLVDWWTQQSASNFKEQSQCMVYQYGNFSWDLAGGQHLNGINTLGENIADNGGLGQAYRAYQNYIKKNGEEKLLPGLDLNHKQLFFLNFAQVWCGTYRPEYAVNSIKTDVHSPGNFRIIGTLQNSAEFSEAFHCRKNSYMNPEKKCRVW

Going from CFGLKLDRIGSMSGLGCVQQRKESKKPPAKLQPR (disulfide 1-17 (inferred)) [Chimeric CNP (B)] to GLSKGCFGLKLDRIGSMSGLGC (disulfide 6-22) [Native CNP-22], the “Residual Rate (%) of the unchanged peptide after 1 hour at 37° C. with hNEP (HPLC)” value falls from 83.8% to 16.7%.

For RPQLKAPPKKSEKRQQVCFGLKLDRIGSMSGLGC (disulfide 18-34 (inferred)) [Chimeric CNP (A)], the “Residual Rate (%) of the unchanged peptide after 1 hour at 37° C. with hNEP (HPLC)” value was 84.3%.
